These results are taken from US20220049236A1.

The target of assay [1] is HSP70 (UniProt P0DMV8). The assay can be described thus: ELISA, plate coated with HSP70. In general terms: ELISA stands for enzyme-linked immunosorbent assay.
Assay [2] has as its target HSP70 (UniProt P0DMV8). Briefly: ELISA, plate coated with HSP70, bound protein detected with peroxidase-conjugated anti-human antibody.

Broadly, the EC50 is the concentration giving half of the maximal effect. Read a low EC50 as an effect from little substance.

Sequence of HSP70 (P0DMV8 whole entry): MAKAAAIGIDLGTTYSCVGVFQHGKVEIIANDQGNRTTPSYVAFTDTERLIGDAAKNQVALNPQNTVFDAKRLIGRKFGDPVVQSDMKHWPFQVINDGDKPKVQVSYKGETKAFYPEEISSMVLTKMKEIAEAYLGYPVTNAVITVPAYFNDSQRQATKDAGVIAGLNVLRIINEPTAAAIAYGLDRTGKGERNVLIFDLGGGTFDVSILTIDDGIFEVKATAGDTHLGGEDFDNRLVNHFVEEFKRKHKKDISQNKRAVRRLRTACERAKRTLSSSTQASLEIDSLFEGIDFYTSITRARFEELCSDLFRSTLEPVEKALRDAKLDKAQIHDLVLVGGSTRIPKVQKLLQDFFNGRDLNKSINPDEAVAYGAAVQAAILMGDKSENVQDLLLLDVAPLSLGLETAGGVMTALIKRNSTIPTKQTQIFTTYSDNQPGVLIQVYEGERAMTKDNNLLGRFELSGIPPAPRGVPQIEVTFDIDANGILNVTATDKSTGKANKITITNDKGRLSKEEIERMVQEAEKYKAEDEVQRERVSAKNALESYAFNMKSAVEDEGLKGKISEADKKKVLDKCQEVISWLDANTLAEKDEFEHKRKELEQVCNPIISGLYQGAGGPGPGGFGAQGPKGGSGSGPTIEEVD

B1: Fc-LPD N346, 362, 409Q (Fc fusion)
chain: APPAAGQQQPPREPPAAPGAWRQQIQWENNGQVFSLLSLGSQYQPQRRRDPGAAVPGAAQASAQQPRTPILLIRDQRTAAARTRTAGSSGVTAGRPRPTARHWFQAGYSTSRAREAGASRAEQQTAPGEVPALSNLRPPSRVDGMVGD
On to B1, for which the EC50 with HSP70 [1] was determined as 41 nM; with HSP70 [2], 57 nM.
